B1: unnamed (protein)
chain: MNFPRASRLMQAAVLGGLMAVSAAATAQTNPYARGPNPTAASLEASAGPFTVRSFTVSRPSGYGAGTVYYPTNAGGTVGAIAIVPGYTARQSSIKWWGPRLASHGFVVITIDTNSTLDQPESRSSQQMAALRQVASLNGTSSSPIYGKVDTARMGVMGWSMGGGGSLISAANNPSLKAAAPQAPWHSSTNFSSVTVPTLIFACENDSIAPVNSSALPIYDSMSRNAKQFLEINGGSHSCANSGNSNQALIGKKGVAWMKRFMDNDTRYSTFACENPNSTAVSDFRTANCS
B2: unnamed (protein)
chain: MNFPRASRLMQAAVLGGLMAVSAAATAQTNPYARGPNPTAASLEASAGPFTVRSFTVSRPSGYGAGTVYYPTNAGGTVGAIAIVPGYTARQSSIKWWGPRLASHGFVVITIDTNSTLDQPSSRSSQQMAALRQVASLNGTSSSPIYGKVDTARMGVMGWSMGGGGSLISAANNPSLKAAASQAPWDSSTNFSSVTVPTLIFACENDSIAPVNSSALPIYDSMSRNAKQFLEINGGSHSCANSGNSNQALIGKKGVAWMKRFMDNDTRYSTFACENPNSTRVSDFRTANCS
B3: unnamed (protein)
chain: MNFPRASRLMQAAVLGGLMAVSAAATAQTNPYARGPNPTAASLEASAGPFTVRSFTVSRPSGYGAGTVYYPTNAGGTVGAIAIVPGYTARQSSIKWWGPRLASHGFVVITIDTNSTLDQPDSRSSQQMAALRQVASLNGTSSSPIYGKVDTARMGVMGWSMGGGGSLISAANNPSLKAAAPQAPWHSSTNFSSVTVPTLIFACENDSIAPVNSSALPIYDSMSRNAKQFLEINGGSHSCANSGNSNQALIGKKGVAWMKRFMDNDTRYSTFACENPNSTRVSDFRTANCS
B4: unnamed (protein)
chain: MNFPRASRLMQAAVLGGLMAVSAAATAQTNPYARGPNPTAASLEASAGPFTVRSFTVSRPSGYGAGTVYYPTNAGGTVGAIAIVPGYTARQSSIKWWGPRLASHGFVVITIDTNSTLDQPSSRSSQQMAALRQVASLNGTSSSPIYGKVDTARMGVMGWSMGGGGSLISAANNPSLKAAAAQAPWDSSTNFSSVTVPTLIFACENDSIAPVNSSALPIYDSMSRNAKQFLEINGGSHSCANSGNSNQALIGKKGVAWMKRFMDNDTRYSTFACENPNSTRVSDFRTANCS
B5: unnamed (protein)
chain: MNFPRASRLMQAAVLGGLMAVSAAATAQTNPYARGPNPTAASLEASAGPFTVRSFTVSRPSGYGAGTVYYPTNAGGTVGAIAIVPGYTARQSSIKWWGPRLASHGFVVITIDTNSTLDQPSSRSSQQMAALRQVASLNGTSSSPIYGKVDTARMGVMGWSMGGGGSLISAANNPSLKAAAPQAPWVSSTNFSSVTVPTLIFACENDSIAPVNSSALPIYDSMSRNAKQFLEINGGSHSCANSGNSNQALIGKKGVAWMKRFMDNDTRYSTFACENPNSTRVSDFRTANCS
B6: unnamed (protein)
chain: MNFPRASRLMQAAVLGGLMAVSAAATAQTNPYARGPNPTAASLEASAGPFTVRSFTVSRPSGYGAGTVYYPTNAGGTVGAIAIVPGYTARQSSIKWWGPRLASHGFVVITIDTNSTLDQPSSRSSQQMAALRQVASLNGTSSSPIYGKVDTARMGVMGWSMGGGGSLISAANNPSLKAAAPQAPWLSSTNFSSVTVPTLIFACENDSIAPVNSSALPIYDSMSRNAKQFLEINGGSHSCANSGNSNQALIGKKGVAWMKRFMDNDTRYSTFACENPNSTRVSDFRTANCS
B7: unnamed (protein)
chain: MNFPRASRLMQAAVLGGLMAVSAAATAQTNPYARGPNPTAASLEASAGPFTVRSFTVSRPSGYGAGTVYYPTNAGGTVGAIAIVPGYTARQSSIKWWGPRLASHGFVVITIDTNSTLDQPESRSSQQMAALRQVASLNGTSSSPIYGKVDTARMGVMGWSMGGGGSLISAANNPSLKAAAPQAPWDSSTNFSSVTVPTLIFACENDSIAPVNSSALPIYDSMSRNAKQFLEINGGSHSCANSGNSNQALIGKKGVAWMKRFMDNDTRYSTFACENPNSTRVSDFRTANCS
B8: unnamed (protein)
chain: MNFPRASRLMQAAVLGGLMAVSAAATAQTNPYARGPNPTAASLEASAGPFTVRSFTVSRPSGYGAGTVYYPTNAGGTVGAIAIVPGYTARQSSIKWWGPRLASHGFVVITIDTNSTLDQPDSRSSQQMAALRQVASLNGTSSSPIYGKVDTARMGVMGWSMGGGGSLISAANNPSLKAAAPQAPWDSSTNFSSVTVPTLIFACENDSIAPVNSSALPIYDSMSRNAKQFLEINGGSHSCANSGNSNQALIGKKGVAWMKRFMDNDTRYSTFACENPNSTRVSDFRTANCS
B9: unnamed (protein)
chain: MNFPRASRLMQAAVLGGLMAVSAAATAQTNPYARGPNPTAASLEASAGPFTVRSFTVSRPSGYGAGTVYYPTNAGGTVGAIAIVPGYTARQSSIKWWGPRLASHGFVVITIDTNSTLDQPSSRSSQQMAALRQVASLNGTSSSPIYGKVDTARMGVMGWSMGGGGSLISAANNPSLKAAAPQAPWDSSTNFSSVTVPTLIFACENDSIAPVNSSALPIYDSMSRNAKQFLEINGGSHSCANSGNSNQALIGKKGVAWMKRFMDNDTRYSTFACENPNSTRVSDFRTANCS
B10: unnamed (protein)
chain: MNFPRASRLMQAAVLGGLMAVSAAATAQTNPYARGPNPTAASLEASAGPFTVRSFTVSRPSGYGAGTVYYPTNAGGTVGAIAIVPGYTARQSSIKWWGPRLASHGFVVITIDTNSTLDQPSSRSSQQMAALRQVASLNGTSSSPIYGKVDTARMGVMGWSMGGGGSLISAANNPSLKAAAPQAPWFSSTNFSSVTVPTLIFACENDSIAPVNSSALPIYDSMSRNAKQFLEINGGSHSCANSGNSNQALIGKKGVAWMKRFMDNDTRYSTFACENPNSTRVSDFRTANCS
B11: unnamed (protein)
chain: MNFPRASRLMQAAVLGGLMAVSAAATAQTNPYARGPNPTAASLEASAGPFTVRSFTVSRPSGYGAGTVYYPTNAGGTVGAIAIVPGYTARQSSIKWWGPRLASHGFVVITIDTNSTLDQPSSRSSQQMAALRQVASLNGTSSSPIYGKVDTARMGVMGWSMGGGGSLISAANNPSLKAAAGQAPWDSSTNFSSVTVPTLIFACENDSIAPVNSSALPIYDSMSRNAKQFLEINGGSHSCANSGNSNQALIGKKGVAWMKRFMDNDTRYSTFACENPNSTRVSDFRTANCS

Substrate: PET
Assay: Proxy for plastic degradation [HPLC-UV]
Details: pH 9; 30 °C; 0 h; part of the chain shown

| Protein | Proxy for plastic degradation [µM] |
| --- | --- |
| B1 | 0 |
| B9 | 0 |

Same assay, conditions: pH 9; 30 °C; 1 h; part of the chain shown

| Protein | Proxy for plastic degradation [µM] |
| --- | --- |
| B1 | 25 |
| B9 | 5 |

Same assay, conditions: pH 9; 30 °C; 2 h; part of the chain shown

| Protein | Proxy for plastic degradation [µM] |
| --- | --- |
| B1 | 42 |
| B9 | 7 |

Same assay, conditions: pH 9; 30 °C; 3 h; part of the chain shown

| Protein | Proxy for plastic degradation [µM] |
| --- | --- |
| B1 | 50 |
| B9 | 10 |

Same assay, conditions: pH 9; 30 °C; 4 h; part of the chain shown

| Protein | Proxy for plastic degradation [µM] |
| --- | --- |
| B1 | 55 |
| B9 | 11 |

Same assay, conditions: pH 9; 30 °C; 5 h; part of the chain shown

| Protein | Proxy for plastic degradation [µM] |
| --- | --- |
| B1 | 68 |
| B9 | 11 |

Same assay, conditions: pH 9; 30 °C; 6 h; part of the chain shown

| Protein | Proxy for plastic degradation [µM] |
| --- | --- |
| B1 | 70 |
| B9 | 12 |

Same assay, conditions: pH 9; 30 °C; 7 h; part of the chain shown

| Protein | Proxy for plastic degradation [µM] |
| --- | --- |
| B1 | 80 |
| B9 | 14 |

Same assay, conditions: pH 9; 30 °C; 8 h; part of the chain shown

| Protein | Proxy for plastic degradation [µM] |
| --- | --- |
| B1 | 75 |
| B9 | 15 |

Same assay, conditions: pH 9; 30 °C; 9 h; part of the chain shown

| Protein | Proxy for plastic degradation [µM] |
| --- | --- |
| B1 | 90 |
| B9 | 13 |

Same assay, conditions: pH 9; 30 °C; 10 h; part of the chain shown

| Protein | Proxy for plastic degradation [µM] |
| --- | --- |
| B1 | 92 |
| B9 | 15 |

Same assay, conditions: pH 9; 40 °C; 0 h; part of the chain shown

| Protein | Proxy for plastic degradation [µM] |
| --- | --- |
| B1 | 0 |
| B9 | 0 |

Same assay, conditions: pH 9; 40 °C; 1 h; part of the chain shown

| Protein | Proxy for plastic degradation [µM] |
| --- | --- |
| B1 | 70 |
| B9 | 11 |

Same assay, conditions: pH 9; 40 °C; 2 h; part of the chain shown

| Protein | Proxy for plastic degradation [µM] |
| --- | --- |
| B1 | 82 |
| B9 | 10 |

Same assay, conditions: pH 9; 40 °C; 3 h; part of the chain shown

| Protein | Proxy for plastic degradation [µM] |
| --- | --- |
| B1 | 105 |
| B9 | 10 |

Same assay, conditions: pH 9; 40 °C; 4 h; part of the chain shown

| Protein | Proxy for plastic degradation [µM] |
| --- | --- |
| B1 | 100 |
| B9 | 10 |

Same assay, conditions: pH 9; 40 °C; 5 h; part of the chain shown

| Protein | Proxy for plastic degradation [µM] |
| --- | --- |
| B1 | 102 |
| B9 | 7 |

Same assay, conditions: pH 9; 40 °C; 6 h; part of the chain shown

| Protein | Proxy for plastic degradation [µM] |
| --- | --- |
| B1 | 104 |
| B9 | 8 |

Same assay, conditions: pH 9; 40 °C; 7 h; part of the chain shown

| Protein | Proxy for plastic degradation [µM] |
| --- | --- |
| B1 | 100 |
| B9 | 9 |

Same assay, conditions: pH 9; 40 °C; 8 h; part of the chain shown

| Protein | Proxy for plastic degradation [µM] |
| --- | --- |
| B1 | 104 |
| B9 | 8 |

Same assay, conditions: pH 9; 40 °C; 9 h; part of the chain shown

| Protein | Proxy for plastic degradation [µM] |
| --- | --- |
| B1 | 115 |
| B9 | 7 |

Same assay, conditions: pH 9; 40 °C; 10 h; part of the chain shown

| Protein | Proxy for plastic degradation [µM] |
| --- | --- |
| B1 | 108 |
| B9 | 8 |

Same assay, conditions: pH 9; 30 °C; 24 h

| Protein | Proxy for plastic degradation [µM] |
| --- | --- |
| B2 | 3.5 |
| B3 | 15.2 |
| B4 | 4.2 |
| B5 | 2.4 |
| B6 | 2.1 |
| B7 | 10.8 |
| B8 | 5.3 |
| B10 | 6 |
| B11 | 2.3 |

Same assay, conditions: pH 9; 30 °C; 72 h

| Protein | Proxy for plastic degradation [µM] |
| --- | --- |
| B2 | 4.9 |
| B3 | 23.2 |
| B4 | 7.8 |
| B5 | 4 |
| B6 | 3.1 |
| B7 | 19 |
| B8 | 24.3 |
| B10 | 11.4 |
| B11 | 3.3 |

Same assay, conditions: pH 9; 40 °C; 24 h

| Protein | Proxy for plastic degradation [µM] |
| --- | --- |
| B2 | 1.9 |
| B3 | 28.9 |
| B4 | 7.5 |
| B5 | 1.9 |
| B6 | 2 |
| B7 | 3.6 |
| B8 | 2.6 |
| B10 | 7.5 |
| B11 | 1.2 |

Same assay, conditions: pH 9; 40 °C; 72 h

| Protein | Proxy for plastic degradation [µM] |
| --- | --- |
| B2 | 2.2 |
| B3 | 38.4 |
| B4 | 7.6 |
| B5 | 7.1 |
| B6 | 7.1 |
| B7 | 5.2 |
| B8 | 7.2 |
| B10 | 14.4 |
| B11 | 1.7 |

Reference: the PETadex activity labels (doi:10.1021/acscatal.9b00568)
